Results taken from paper PMC8567202, “Phosphoinositide-binding activity of Smad2 is essential for its function in TGF-β signaling” (The Journal of Biological Chemistry, 2021).

Test: SPR membrane binding to POPC/POPS/PI(3,4,5)P3 vesicles
Details: POPC/POPS/PI(3,4,5)P3 (or PIP3) (77:20:3), 1 μM Smad2
Protocol: Figure 1 Membrane-binding properties of Smad2 FL protein and MH2 domain determined by SPR analysis.A, PtdInsP selectivity of Smad2-FL determined using POPC/POPS/PtdInsP (77:20:3 in mole ratio) LUVs coated on the L1 sensor chip. The protein concentration was 100 nM. PIP3 indicates PI(3,4,5)P3. B, determination of Kd for binding of Smad2 FL to different LUVs. The protein concentration was varied from 0 to 500 nM. C, PI(4,5)P2 concentration dependence of membrane binding of Smad2-FL determined using POPC/POPS/PI(4,5)P2 (77-x:20:x, x = 0–5 mol%) LUVs. The protein concentration was 100 nM. D, PtdInsP selectivity of the Smad2 MH2 domain determined using POPC/POPS/PtdInsP (77:20:3 in mole ratio) LUVs. […] RUmax values determined for different vesicles at 1 μM Smad2 were: 280 ± 20 for POPC/POPS/PI(4,5)P2 (77:20:3), 370 ± 10 for POPC/POPS/PI(3,4)P2 (77:20:3), 400 ± 15 for POPC/POPS/PI(3,4,5)P3 (or PIP3) (77:20:3), 400 ± 20 for POPC/POPS/PI(3)P (77:20:3), and 380 ± 20 for POPC/POPS (80:20). […]
All SPR measurements were performed at 23 °C in 20 mM Tris, pH 7.4, containing 0.16 M NaCl using a lipid-coated L1 chip in the BIACORE X-100 system (GE Healthcare) as described previously ([19], [38]). […] Sensorgrams were collected for both membrane association and dissociation but the only the association phases were further analyzed because the dissociation phases were often too slow for analysis. […]

B1: Smad2 WT: bacterially expressed full-length Smad2 wild-type (protein)
chain: MSSILPFTPPVVKRLLGWKKSAGGSGGAGGGEQNGQEEKWCEKAVKSLVKKLKKTGRLDELEKAITTQNCNTKCVTIPSTCSEIWGLSTANTVDQWDTTGLYSFSEQTRSLDGRLQVSHRKGLPHVIYCRLWRWPDLHSHHELKAIENCEYAFNLKKDEVCVNPYHYQRVETPVLPPVLVPRHTEILTELPPLDDYTHSIPENTNFPAGIEPQSNYIPETPPPGYISEDGETSDQQLNQSMDTGSPAELSPTTLSPVNHSLDLQPVTYSEPAFWCSIAYYELNQRVGETFHASQPSLTVDGFTDPSNSERFCLGLLSNVNRNATVEMTRRHIGRGVRLYYIGGEVFAECLSDSAIFVQSPNCNQRYGWHPATVCKIPPGCNLKIFNNQEFAALLAQSVNQGFEAVYQLTRMCTIRMSFVKGWGAEYRRQTVTSTPCWIELHLNGPLQWLDKVLTQMGSPSVRCSSMS
modifications: left off: His6, N-terminal, state not stated
notes: bacterially expressed full-length Smad2 wild-type
RUmax: 400 ± 15
